The target in the test is recombinant human TNF (human) (UniProt P01375). The test can be described thus: binding assays of cA2 and recombinant human TNF (format not described).
UniProt P01375, sequence (P01375 77-233 limits assumed): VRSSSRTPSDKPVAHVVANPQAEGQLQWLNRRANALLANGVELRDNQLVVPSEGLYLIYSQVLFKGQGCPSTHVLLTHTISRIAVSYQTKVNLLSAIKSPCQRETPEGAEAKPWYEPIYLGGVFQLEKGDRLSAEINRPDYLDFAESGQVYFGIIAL

On to “chimeric A2 (cA2) anti-TNF monoclonal antibody”, for which the Ka was determined as 1.8e+09 M⁻¹.

The record behind these values is patent US7608262.
